Results as given in patent publication US20130230510A1.

Key:
[1] = target: CD123 (human IL-3Rα) on cells (human) (UniProt P26951); assay: cell-based or functional assay
[2] = target: CD123 (human IL-3Rα) (human) (UniProt P26951); assay: method not stated (indicative KD)
[3] = target: CD123 (human IL-3Rα) (human) (UniProt P26951); assay: method not stated
[4] = target: CD123 (human IL-3Rα) on cells (human) (UniProt P26951); assay: cell-based or functional assay; remark: listed apart in the source

## chimeric antibody CSL360
[1]
  % CD107a positive NK cells, RMH003 AML target cells, CSL360 10 µg/mL (FIG. 8B): 39%
  % lysis, 51Cr release ADCC, CTLEN cells, E:T 10:1: 10%
  % lysis, 51Cr release ADCC, CTLEN cells, E:T 100:1: 51%
  % lysis, 51Cr release ADCC, SL (AML) cells, E:T 10:1: 2.4%
  % lysis, 51Cr release ADCC, SL (AML) cells, E:T 100:1: 15%
  % lysis, calcein release ADCC, RBH013 (AML), E:T 10:1: 0%
  % lysis, calcein release ADCC, RBH013 (AML), E:T 100:1: 0%
  % lysis, calcein release ADCC, RMH003 (AML), E:T 10:1: 39.2%
  % lysis, calcein release ADCC, RMH003 (AML), E:T 100:1: 82.6%
  % lysis, calcein release ADCC, RMH008 (AML), E:T 10:1: 59.5%
  % lysis, calcein release ADCC, RMH008 (AML), E:T 100:1: 100%
  % lysis, calcein release ADCC, RMH009 (B-ALL), E:T 10:1: 0%
  % lysis, calcein release ADCC, RMH009 (B-ALL), E:T 100:1: 0%
  % lysis, calcein release ADCC, RMH009* (B-ALL), repeat with other PBMC, E:T 10:1: 0%
  % lysis, calcein release ADCC, RMH009* (B-ALL), repeat with other PBMC, E:T 100:1: 0%
  % lysis, calcein release ADCC, RMH010 (AML), E:T 10:1: 4%
  % lysis, calcein release ADCC, RMH010 (AML), E:T 100:1: 0%
  % of NK cells expressing CD107a, E:T 1:1, target CTLEN-001: 6.7%
  % of NK cells expressing CD107a, E:T 1:1, target CTLEN-008: 24%
  % of NK cells expressing CD107a, E:T 1:1, target CTLEN-010: 5.7%
  % of NK cells expressing CD107a, E:T 1:1, target CTLEN-011-PBMC-1: 8.1%
  % of NK cells expressing CD107a, E:T 1:1, target CTLEN-011-PBMC-2: 10.5%
  % of NK cells expressing CD107a, E:T 1:1, target EL4hi-002: 2.9%
  % of NK cells expressing CD107a, E:T 1:1, target EL4hi-003: 15%
  % of NK cells expressing CD107a, E:T 1:1, target EL4hi-004: 16%
  % of NK cells expressing CD107a, E:T 1:1, target EL4hi-005: 21%
  % of NK cells expressing CD107a, E:T 1:1, target EL4hi-010: 34%
  % of NK cells expressing CD107a, E:T 1:1, target EL4hi-011-PBMC-1: 15.5%
  % of NK cells expressing CD107a, E:T 1:1, target EL4hi-011-PBMC-2: 23.5%
  % of NK cells expressing CD107a, E:T 1:1, target EL4hi/lo-001: 2.8%
  % of NK cells expressing CD107a, E:T 1:1, target RBH009^a (AML): 8.5%
  % of NK cells expressing CD107a, E:T 1:1, target RBH009^b (AML): 8%
  % of NK cells expressing CD107a, E:T 1:1, target RBH013^a (AML): 10%
  % of NK cells expressing CD107a, E:T 1:1, target RBH013^b (AML): 22%
  % of NK cells expressing CD107a, E:T 1:1, target RMH003^a (AML): 30%
  % of NK cells expressing CD107a, E:T 1:1, target RMH003^b (AML): 33%
  % of NK cells expressing CD107a, E:T 1:1, target RMH003^c (AML): 38%
  % of NK cells expressing CD107a, E:T 1:1, target RMH007 (B-ALL): 16.4%
  % of NK cells expressing CD107a, E:T 1:1, target RMH008^a (AML): 9%
  % of NK cells expressing CD107a, E:T 1:1, target RMH008^b (AML): 16%
  % of NK cells expressing CD107a, E:T 1:1, target RMH008^c (AML): 8.7%
  % of NK cells expressing CD107a, E:T 1:1, target RMH009^a (B-ALL): 3%
  % of NK cells expressing CD107a, E:T 1:1, target RMH009^b (B-ALL): 1.7%
  % of NK cells expressing CD107a, E:T 1:1, target RMH009^c (B-ALL): 7.4%
  % of NK cells expressing CD107a, E:T 1:1, target RMH010^a (AML): 14%
  % of NK cells expressing CD107a, E:T 1:1, target RMH010^b (AML): 25.5%
  % of NK cells expressing CD107a, E:T 1:1, target RMH011 (AML): 6.6%
  % of NK cells expressing CD107a, E:T 1:1, target TF-1 (GM-CSF): 0.7%
  % of NK cells expressing CD107a, E:T 1:1, target TF-1(IL-3): 1.45%
  IC50, IL-3-dependent TF-1 cell proliferation: 5 nM
[2]
  Kd: 1.06 nM

## defucosylated hCSL360 produced by kifunensine treatment (hCSL360kif) (antibody)
[1]
  antibody concentration for almost complete ADCC lysis of Raji-CD123 high cells, E:T 50:1: 1 ng/mL

## humanised CSL360S239D/A330L/I332E (hCSL360Fc3) (from UniProt P01857 1-330) (antibody)
[1]
  antibody concentration for almost complete ADCC lysis of Raji-CD123 high cells, E:T 50:1: 1 ng/mL

## humanised variant of CSL360 (hCSL360) (antibody)
[3]
  fold decrease in affinity compared to the chimeric MAb (CSL360): 10 fold
[1]
  IC50, IL-3-dependent TF-1 cell proliferation: 19 nM
[2]
  Kd: 12.8 nM

B1: monoclonal antibody (MAb) 7G3 (antibody, from another filing, V domains shown)
VH: EVQLQQSGPELVKPGASVKMSCKASGYTFTDYYMKWVKQSHGKSLEWIGDIIPSNGATFYNQKFKGKATLTVDRSSSTAYMHLNSLTSEDSAVYYCTRSHLLRASWFAYWGQGTLVTVSA
VL: DFVMTQSPSSLTVTAGEKVTMSCKSSQSLLNSGNQKNYLTWYLQKPGQPPKLLIYWASTRESGVPDRFTGSGSGTDFTLTISSVQAEDLAVYYCQNDYSYPYTFGGGTKLEIKR
[4]
  IL-3 (1 nM)-stimulated CD131 tyrosine phosphorylation, STAT-5 and Akt activation in TF-1 cells; 7G3 concentration that blocks completely: 100 nM
